B1: DUSP5 (parent)
chain: YSEYPECCVDVKPISQEKIESERA
B2: IQUB (parent)
chain: EADYEDDSKIAFLMQLQDIQYLTE

Variants of: B1
Assay: protein stability index of a GFP-peptide fusion (GPS, HEK-293T) (PSI 1-6); higher = more stable
Conditions: c terminus: a fixed tail appended
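Note: lentivirally expressed fusions sorted by FACS into six bins by GFP to DsRed ratio, PSI derived from sequencing read proportions per bin multiplied by bin number.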

| Variant | protein stability index |
| --- | --- |
| Y1F | 4.12 |
| Y1W | 5.1 |
| Y1D | 5.29 |
| Y1T | 5.23 |
| Y1N | 5.6 |
| Y1G | 5.21 |
| Y1E | 5.86 |
| Y1R | 5.62 |
| Y1M | 5 |
| Y1A | 5.74 |
| Y1P | 4.94 |
| Y1K | 5.36 |
| Y1I | 4.87 |
| Y1V | 5.31 |
| Y1S | 5.75 |
| Y1Q | 5.33 |
| Y1C | 5.2 |
| Y1L | 5.5 |
| Y1H | 5.21 |
| S2A | 3.48 |

Variants of: B2
Assay: as above
Conditions: c terminus: a fixed tail appended

| Variant | protein stability index |
| --- | --- |
| S8M | 2.7 |
| S8T | 3.07 |
| S8Q | 3.32 |
| S8V | 2.6 |
| S8N | 3.53 |
| S8L | 2.25 |
| S8Y | 2.34 |
| S8W | 2.29 |
| S8P | 2.6 |
| S8R | 2.88 |
| K9R | 2.89 |
| K9W | 2.61 |
| K9C | 1.86 |
| K9H | 3.36 |
| K9M | 2.47 |
| K9S | 3.06 |
| K9G | 2.81 |
| K9F | 2.32 |
| K9L | 2.58 |
| K9P | 2.9 |
| K9A | 2.48 |
| K9V | 2.3 |
| K9T | 2.64 |
| K9Y | 2.42 |
| K9D | 3.63 |

| Variant | protein stability index |
| --- | --- |
| K9N | 3.08 |
| K9Q | 3.21 |
| K9E | 3.39 |
| K9I | 1.83 |
| I10T | 3.5 |
| I10S | 3.91 |
| I10F | 2.9 |
| I10E | 4.43 |
| I10R | 3.82 |
| I10K | 4.01 |
| I10P | 4.53 |
| I10A | 4 |
| I10H | 4.29 |
| I10M | 3.2 |
| I10G | 4.13 |
| I10V | 3.42 |
| I10N | 4.17 |
| I10L | 3 |
| I10Y | 2.76 |
| I10C | 3.34 |
| I10D | 4.35 |
| I10W | 3.08 |
| I10Q | 4.12 |
| E24P | 3.29 |
| E24Q | 2.72 |

| Variant | protein stability index |
| --- | --- |
| E24R | 2.07 |
| E24W | 2.45 |
| E24V | 1.81 |
| E24A | 2.91 |
| E24N | 2.61 |
| E24Y | 2.36 |
| E24M | 1.86 |
| E24I | 1.67 |
| E24L | 1.56 |
| E24K | 2.73 |
| E24S | 2.71 |
| E24D | 3.32 |
| E24G | 2.89 |
| E24C | 2.33 |
| E24T | 2.54 |
| E24F | 1.92 |
| E24H | 2.48 |
| A11F | 2.38 |
| A11C | 2.54 |
| A11I | 1.99 |
| A11V | 2.24 |
| A11H | 2.97 |
| A11W | 2.78 |
| A11K | 3.4 |
| A11T | 3.14 |

| Variant | protein stability index |
| --- | --- |
| A11E | 3.39 |
| A11P | 3.82 |
| A11N | 3.77 |
| A11S | 2.94 |
| A11D | 4.07 |
| A11Q | 3.49 |
| A11Y | 2.02 |
| A11R | 2.83 |
| A11G | 3.41 |
| A11M | 2.66 |
| A11L | 2.12 |
| T23E | 4.16 |
| T23V | 1.92 |
| T23H | 3.29 |
| T23D | 4.09 |
| T23F | 1.98 |
| T23Q | 3.89 |
| T23W | 1.97 |
| T23G | 3.19 |
| T23K | 3.2 |
| T23Y | 2.21 |
| T23A | 2.26 |
| T23M | 1.92 |
| T23C | 1.87 |
| T23L | 2.12 |

| Variant | protein stability index |
| --- | --- |
| T23N | 3.89 |
| T23I | 1.54 |
| T23S | 3.21 |
| T23R | 3.29 |
| T23P | 4.17 |
| F12R | 4.38 |
| F12K | 4.51 |
| F12Q | 4.78 |
| F12G | 4.66 |
| F12M | 4.05 |
| F12N | 4.33 |
| F12Y | 3.73 |
| F12H | 4.62 |
| F12S | 4.61 |
| F12T | 4.94 |
| F12V | 3.54 |
| F12W | 3.18 |
| F12A | 3.89 |
| F12C | 4.29 |
| F12P | 4.75 |
| F12I | 3.19 |
| F12L | 2.96 |
| F12E | 5.06 |
| F12D | 5.07 |
| Q15K | 2.9 |

| Variant | protein stability index |
| --- | --- |
| Q15I | 1.98 |
| Q15Y | 2.09 |
| Q15N | 2.84 |
| Q15T | 2.19 |
| Q15H | 2.44 |
| Q15M | 2.36 |
| Q15V | 1.76 |
| Q15A | 2.61 |
| Q15F | 1.77 |
| Q15R | 2.89 |
| Q15S | 2.46 |
| Q15E | 3.36 |
| Q15W | 1.78 |
| Q15D | 3.1 |
| Q15G | 3.76 |
| Q15L | 2.04 |
| Q15P | 3.39 |
| Q15C | 2.09 |
| Q20D | 3.86 |
| Q20F | 1.54 |
| Q20G | 2.97 |
| Q20M | 2.48 |
| Q20T | 3.05 |
| Q20W | 2.35 |
| Q20Y | 1.62 |

| Variant | protein stability index |
| --- | --- |
| Q20C | 2.2 |
| Q20L | 1.69 |
| Q20I | 2.64 |
| Q20H | 3.12 |
| Q20V | 2.19 |
| Q20P | 3.45 |
| Q20A | 2.5 |
| Q20R | 3.67 |
| Q20E | 3.98 |
| Q20N | 3.22 |
| Q20S | 3.61 |
| Q20K | 3.46 |
| L16S | 4.26 |
| L16M | 3.55 |
| L16R | 3.99 |
| L16I | 2.95 |
| L16A | 4.13 |
| L16G | 4.76 |
| L16V | 3.71 |
| L16Y | 3.64 |
| L16K | 4.53 |
| L16Q | 4.19 |
| L16W | 3.25 |
| L16D | 4.58 |
| L16E | 3.96 |

| Variant | protein stability index |
| --- | --- |
| L16H | 4.43 |
| L16P | 4.37 |
| L16N | 4.33 |
| L16C | 4.06 |
| L16T | 3.75 |
| L16F | 3.42 |
| M14P | 4.46 |
| M14A | 3.4 |
| M14D | 4.27 |
| M14L | 2.32 |
| M14H | 3.96 |
| M14S | 3.95 |
| M14F | 2.46 |
| M14Y | 2.92 |
| M14Q | 4.23 |
| M14R | 3.75 |
| M14V | 2.7 |
| M14N | 4.26 |
| M14K | 3.77 |
| M14G | 4.37 |
| M14T | 4.04 |
| M14W | 2.42 |
| M14E | 4.06 |
| M14I | 2.6 |
| M14C | 3.21 |

| Variant | protein stability index |
| --- | --- |
| I19Y | 3.54 |
| I19K | 4.86 |
| I19Q | 4.11 |
| I19L | 2.86 |
| I19N | 3.98 |
| I19E | 4.96 |
| I19S | 4.35 |
| I19C | 3.96 |
| I19F | 3.44 |
| I19D | 4.94 |
| I19G | 4.31 |
| I19H | 3.98 |
| I19T | 4.15 |
| I19W | 2.64 |
| I19M | 3.68 |
| I19A | 4.17 |
| I19R | 3.78 |
| I19P | 4.18 |
| I19V | 3.86 |
| Q17T | 2.96 |
| Q17K | 2.87 |
| Q17C | 2.25 |
| Q17F | 2.68 |
| Q17D | 3.73 |
| Q17M | 2.17 |

| Variant | protein stability index |
| --- | --- |
| Q17P | 3.21 |
| Q17H | 3.13 |
| Q17G | 3.46 |
| Q17A | 2.5 |
| Q17Y | 2.51 |
| Q17E | 3.43 |
| Q17S | 2.69 |
| Q17R | 2.57 |
| Q17W | 2.02 |
| Q17L | 2.68 |
| Q17N | 3.5 |
| Q17V | 2.67 |
| Q17I | 1.76 |
| Y21K | 3.51 |
| Y21V | 3.51 |
| Y21L | 3.44 |
| Y21S | 3.52 |
| Y21M | 3.45 |
| Y21H | 3.55 |
| Y21T | 4.06 |
| Y21E | 4.21 |
| Y21G | 4.07 |
| Y21N | 3.87 |
| Y21Q | 3.64 |
| Y21F | 2.78 |

| Variant | protein stability index |
| --- | --- |
| Y21I | 3.19 |
| Y21A | 3.81 |
| Y21D | 4.45 |
| Y21R | 2.99 |
| Y21P | 3.77 |
| Y21C | 3.74 |
| Y21W | 2.95 |
| L13R | 3.88 |
| L13P | 4.68 |
| L13D | 4.68 |
| L13F | 2.85 |
| L13W | 3.51 |
| L13H | 4.15 |
| L13T | 4.3 |
| L13Q | 4.34 |
| L13M | 3.26 |
| L13V | 3.12 |
| L13C | 3.5 |
| L13A | 4.02 |
| L13Y | 2.84 |
| L13G | 4.29 |
| L13K | 4.11 |
| L13N | 4.55 |
| L13S | 4.41 |
| L13E | 4.54 |

| Variant | protein stability index |
| --- | --- |
| L13I | 2.77 |
| L22H | 4.07 |
| L22Q | 3.83 |
| L22E | 4.7 |
| L22K | 3.79 |
| L22V | 3.42 |
| L22W | 3.07 |
| L22N | 4.65 |
| L22P | 4.51 |
| L22R | 3.94 |
| L22M | 3.4 |
| L22C | 3.67 |
| L22A | 4.16 |
| L22F | 2.91 |
| L22D | 4.97 |
| L22I | 3.62 |
| L22S | 3.99 |
| L22G | 4.5 |
| L22Y | 3.21 |
| L22T | 3.96 |
| D18P | 2.83 |
| D18M | 1.83 |
| D18R | 2.32 |
| D18F | 2.33 |
| D18E | 2.86 |

| Variant | protein stability index |
| --- | --- |
| D18Y | 1.54 |
| D18A | 1.74 |
| D18H | 2.58 |
| D18S | 2.24 |
| D18C | 1.84 |
| D18V | 2.22 |
| D18Q | 2.68 |
| D18W | 2.2 |
| D18K | 2.65 |
| D18G | 2.92 |
| D18T | 1.72 |
| D18I | 1.39 |
| D18L | 1.69 |
| D18N | 2.58 |

Source: the supplement of paper PMC10567573
